Patent US20210261650A1 (published 2021)

Molecular target: SARS-CoV-2 Spike (S) protein on pseudotyped virus or live SARS-CoV-2 (SARS-CoV-2 (BetaCoV/Wuhan-Hu-1/2019 for …, UniProt P0DTC2 14-1273))
Test: cell-based or functional assay

B1: SARS-CoV-2 S310 mAb (antibody, V domains shown)
VH: QVQLVQSGAELKKPGSSVKVSCKASGGTFNSYSFNWVRQAPGQGLEWLGGIIPVLGTSNYAQKFQGRVAVTADEFTTTAYMELSSLRSEDTAVYYCATRTYDSSGYRPYYYGLDVWGQGTPVTVSS
VL: QSALTQPASVSGSPGQSITISCTGTSSDVGSYNLVSWYQQRPGKAPELMIYEVTKRPSGLSNRFSGSKSGNTASLTISGLQAEDEADYYCCSYAGSDTVIFGGGTKVTVL
Percent neutralization of infection, dilution 2: -4%
Percent neutralization of infection, dilution 6: -15%
Percent neutralization of infection, dilution 18: -15%
Percent neutralization of infection, dilution 54: -6%
